{"source": "patent US20260285998", "about": "(published 2026)", "binders": {"B1": {"name": "P1AG7397 BCMA arm (antibody, V domains shown)", "VH": "EVQLLESGGGLVQPGGSLRLSCAASGFTFSNAWMDWVRQAPGKGLEWVSQITAKSNNYATYYADSVKGRFTISRDNSKNTLYLQMNSLRAEDTAVYYCTDDGYHWGQGTLVTVSS", "VL": "DIQMTQSPSSLSASVGDRVTITCRASEDIRNGLAWYQQKPGKAPKLLIYNANSLHTGVPSRFSGSGSGTDFTLTISSLQPEDFATYYCEDTSKYPYTFGQGTKLEIK"}, "B2": {"name": "P1AG7409 BCMA arm (antibody, V domains shown)", "VH": "QVQLVQSGAEVKKPGASVKVSCKASGYTFTNYWMHWVRQAPGQGLEWMGIIHPNSGSTNYNEKFQGRVTMTRDTSTSTVYMELSSLRSEDTAVYYCARGIYDYPFAYWGQGTLVTVSS", "VL": "DIQMTQSPSSLSASVGDRVTITCRASESVSIHGTHLMHWYQQKPGKAPKLLIYAASNLESGVPSRFSGSGSGTDFTLTISSLQPEDFATYYCQQSIEDPYTFGGGTKVEIK"}, "B3": {"name": "P1AH1062 (5D5 LM4) BCMA arm (antibody)", "chain 1": "not shown", "chain 2": "EIVLTQSPGTLSLSPGERATLSCKASQDIDDAINWYQQKPGQAPRLLIYDASLRATGIPDRFSGSGSGTDFTLTISRLEPEDFAVYYCQQSLRTPITFGQGTKLEIKRTVAAPSVFIFPPSDEQLKSGTASVVCLLNNFYPREAKVQWKVDNALQSGNSQESVTEQDSKDSTYSLSSTLTLSKADYEKHKVYACEVTHQGLSSPVTKSFNRGEC"}, "B4": {"name": "P1AG7400 BCMA arm (antibody, V domains shown)", "VH": "B2 VH", "VL": "B2 VL with N57S, E59Q, G72E"}, "B5": {"name": "P1AG7422 BCMA arm (antibody, V domains shown)", "VH": "B1 VH with L5V, Q13K, V48I, S49A, D64A, S65P, N76D, R89K, A90T", "VL": "B1 VL with D1A"}, "B6": {"name": "Teclistamab BCMA arm (antibody, V domains shown)", "VH": "QLQLQESGPGLVKPSETLSLTCTVSGGSISSGSYFWGWIRQPPGKGLEWIGSIYYSGITYYNPSLKSRVTISVDTSKNQFSLKLSSVTAADTAVYYCARHDGAVAGLFDYWGQGTLVTVSS", "VL": "SYVLTQPPSVSVAPGQTARITCGGNNIGSKSVHWYQQPPGQAPVVVVYDDSDRPSGIPERFSGSNSGNTATLTISRVEAGDEAVYYCQVWDSSSDHVVFGGGTKLTVLG"}, "B7": {"name": "P1AG5046 (54_VH1b/VL1a_T699S) (antibody, V domains shown)", "VH": "B1 VH with L5V, Q13K, V48I, S49A, D64A, S65P, N76D, R89K, A90T", "VL": "B1 VL with D1A, T56S"}, "B8": {"name": "P1AG5064 (54_VH1b/VL1a_N651A_N695S) (antibody, V domains shown)", "VH": "B1 VH with L5V, Q13K, V48I, S49A, D64A, S65P, N76D, R89K, A90T", "VL": "B1 VL with D1A, N50A, N52S"}, "B9": {"name": "P1AG5065 (54_VH1a_Y292D/VL1a_T699S) (antibody, V domains shown)", "VH": "B1 VH with L5V, Q13K, S49G, Y61D, D64A, S65P, N76D, R89K, A90T", "VL": "B1 VL with D1A, T56S"}, "B10": {"name": "P1AG5021 (E04_VH1b/VL1g) (antibody, V domains shown)", "VH": "B2 VH with R72V, T74K", "VL": "B2 VL with Y91F"}, "B11": {"name": "P1AG5030 (54_VH1b/VL2a) (antibody, V domains shown)", "VH": "B1 VH with L5V, Q13K, V48I, S49A, D64A, S65P, N76D, R89K, A90T", "VL": "B1 VL"}, "B12": {"name": "P1AG5028 (54_VH2a/VL1a) (antibody, V domains shown)", "VH": "B1 VH", "VL": "B1 VL with D1A"}, "B13": {"name": "P1AG5060 (E04_VH1b/VL1f) (antibody, V domains shown)", "VH": "B2 VH with R72V, T74K", "VL": "B2 VL with N57S, E59Q, G72E"}, "B14": {"name": "P1AG5034 (E04_VH1b/VL1e) (antibody, V domains shown)", "VH": "B2 VH with R72V, T74K", "VL": "B2 VL with N57S, E59Q"}, "B15": {"name": "P1AG5026 (E04_VH1b/VL1a) (antibody, V domains shown)", "VH": "B2 VH with R72V, T74K", "VL": "B2 VL"}, "B16": {"name": "P1AG5059 (E04_VH1a/VL1g) (antibody, V domains shown)", "VH": "B2 VH", "VL": "B2 VL with Y91F"}, "B17": {"name": "P1AG5014 (54_VH1a_Y292D/VL1a_L1_pGL) (antibody, V domains shown)", "VH": "B1 VH with L5V, Q13K, S49G, Y61D, D64A, S65P, N76D, R89K, A90T", "VL": "B1 VL with D1A, G32D, A34G"}, "B18": {"name": "P1AG5043 (E04_VH1a/VL1d) (antibody, V domains shown)", "VH": "B2 VH", "VL": "B2 VL with E59Q, G72E"}, "B19": {"name": "P1AG5067 (54_VH1a/VL1a_L1_pGL) (antibody, V domains shown)", "VH": "B1 VH with L5V, Q13K, S49G, D64A, S65P, N76D, R89K, A90T", "VL": "B1 VL with D1A, G32D, A34G"}}, "note": "Residue numbers refer to the chain shown, from its start."}
{"target": "T1, human BCMA (cell surface) (human)", "T1 chain": "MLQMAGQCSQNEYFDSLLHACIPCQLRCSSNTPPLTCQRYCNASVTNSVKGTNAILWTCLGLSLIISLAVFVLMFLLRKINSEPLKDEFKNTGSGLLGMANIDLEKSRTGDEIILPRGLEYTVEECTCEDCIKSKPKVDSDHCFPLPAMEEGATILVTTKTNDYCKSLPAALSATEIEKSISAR", "assay": "FACS", "units": {"EC50": "nM"}}
{"binder": "B1", "EC50": 23.7}
{"binder": "B2", "EC50": 21.6}
{"binder": "B3", "EC50": 103}
{"binder": "B4", "EC50": 41.5}
{"binder": "B5", "EC50": 10.8}
{"target": "T2, human BCMA R27P (human)", "T2 chain": "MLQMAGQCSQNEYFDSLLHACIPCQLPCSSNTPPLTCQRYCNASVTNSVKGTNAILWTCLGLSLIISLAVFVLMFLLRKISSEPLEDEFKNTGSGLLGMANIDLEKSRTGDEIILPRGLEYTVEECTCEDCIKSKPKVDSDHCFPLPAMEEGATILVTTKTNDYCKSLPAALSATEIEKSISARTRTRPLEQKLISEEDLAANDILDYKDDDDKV", "assay": "FACS"}
{"binder": "B6", "binding result": "no binding"}
{"target": "T3, human BCMA S30del (human)", "T3 chain": "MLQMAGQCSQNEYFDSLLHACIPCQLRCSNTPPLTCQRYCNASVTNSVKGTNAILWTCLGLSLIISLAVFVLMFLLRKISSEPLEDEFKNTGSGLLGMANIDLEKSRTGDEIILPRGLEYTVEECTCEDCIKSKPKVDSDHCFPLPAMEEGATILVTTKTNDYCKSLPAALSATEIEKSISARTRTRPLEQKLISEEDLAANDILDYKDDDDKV", "assay": "FACS"}
{"binder": "B6", "binding result": "no binding"}
{"target": "T4, human BCMA-Fc (human)", "T4 chain": "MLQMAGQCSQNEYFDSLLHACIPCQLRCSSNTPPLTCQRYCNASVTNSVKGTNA", "assay": "SPR, 25C", "units": {"Kd": "nM"}}
{"binder": "B7", "Kd": 1.9}
{"binder": "B8", "Kd": 3.5}
{"binder": "B9", "Kd": 2.6}
{"binder": "B10", "Kd": 2.8}
{"binder": "B11", "Kd": 1.3}
{"binder": "B12", "Kd": 2.7}
{"binder": "B13", "Kd": 3.2}
{"binder": "B14", "Kd": 3.2}
{"binder": "B15", "Kd": 2.7}
{"binder": "B16", "Kd": 2.3}
{"binder": "B17", "Kd": 1.7}
{"binder": "B18", "Kd": 2.6}
{"binder": "B19", "Kd": 3.4}
{"target": "cynomolgus BCMA-Fc (cynomolgus)", "sequence (chain, as listed by the source)": "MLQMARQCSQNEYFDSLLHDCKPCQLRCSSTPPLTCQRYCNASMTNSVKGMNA", "assay": "SPR, 25C", "units": {"Kd": "nM"}}
{"binder": "B7", "Kd": 3.9}
{"binder": "B8", "Kd": 13}
{"binder": "B9", "Kd": 6.4}
{"binder": "B10", "Kd": 35}
{"binder": "B11", "Kd": 2.2}
{"binder": "B12", "Kd": 3.8}
{"binder": "B13", "Kd": 14}
{"binder": "B14", "Kd": 32}
{"binder": "B15", "Kd": 33}
{"binder": "B16", "Kd": 30}
{"binder": "B17", "Kd": 0.11}
{"binder": "B18", "Kd": 14}
{"binder": "B19", "Kd": 1.7}
